In patent publication US20190300590A1 (PROTAGONIST THERAPEUTICS, published 2019):
*1 amine or outer side, *2 acyl side, *3 side chain or, on linkers, in order; H or OH if unused. Bridges are numbered along the chain shown (N, C = ends). Primed or numbered codes have the meaning given here. [ ]: non-standard residue; d: D form. Phe(4-OMe)(3) = O-methyl-L-tyrosine (4-methoxy-L-phenylalanine), COc1ccc(C[C@H](N[*:1])C(=O)[*:2])cc1; Phe(4-OMe) = 4-methoxy-L-phenylalanine (O-methyl-L-tyrosine), COc1ccc(C[C@H](N[*:1])C(=O)[*:2])cc1; Tyr(3-tBu) = CC(C)(C)c1cc(C[C@H](N)C(=O)O)ccc1O; Abu(4-yl) = O=C([C@H](CC[*:3])N[*:1])[*:2]; 2Nal = N[C@@H](Cc1ccc2ccccc2c1)C(=O)O; β3hR = N=C(N)NCCC[C@H](N)CC(=O)O; NMeK = CN[C@@H](CCCCN)C(=O)O; αMeK = C[C@](N)(CCCCN)C(=O)O; Abu = CC[C@H](N)C(=O)O; AEA = NCCOCC(=O)O

T1: IL-23R on human cells (IL-23R-expressing DB cells; human NK cells) (human, UniProt Q5VWK5 24-629)
T1 sequence (looked up): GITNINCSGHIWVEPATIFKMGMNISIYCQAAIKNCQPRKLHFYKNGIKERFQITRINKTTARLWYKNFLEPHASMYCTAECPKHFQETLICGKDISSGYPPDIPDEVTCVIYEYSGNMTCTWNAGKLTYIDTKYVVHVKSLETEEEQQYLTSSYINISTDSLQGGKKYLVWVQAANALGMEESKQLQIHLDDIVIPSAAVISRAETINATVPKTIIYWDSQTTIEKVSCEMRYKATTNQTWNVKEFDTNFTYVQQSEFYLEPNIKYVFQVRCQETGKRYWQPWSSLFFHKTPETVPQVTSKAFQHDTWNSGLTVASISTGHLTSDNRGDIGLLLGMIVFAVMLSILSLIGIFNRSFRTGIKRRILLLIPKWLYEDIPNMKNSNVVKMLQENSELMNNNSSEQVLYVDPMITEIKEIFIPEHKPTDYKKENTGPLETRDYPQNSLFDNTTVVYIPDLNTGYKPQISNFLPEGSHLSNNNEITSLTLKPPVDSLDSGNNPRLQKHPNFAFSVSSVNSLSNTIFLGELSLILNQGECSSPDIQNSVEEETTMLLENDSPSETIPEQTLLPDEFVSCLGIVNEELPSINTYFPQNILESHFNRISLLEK

T2: IL23R_huFC (human, UniProt Q5VWK5 24-353)
T2 sequence (looked up): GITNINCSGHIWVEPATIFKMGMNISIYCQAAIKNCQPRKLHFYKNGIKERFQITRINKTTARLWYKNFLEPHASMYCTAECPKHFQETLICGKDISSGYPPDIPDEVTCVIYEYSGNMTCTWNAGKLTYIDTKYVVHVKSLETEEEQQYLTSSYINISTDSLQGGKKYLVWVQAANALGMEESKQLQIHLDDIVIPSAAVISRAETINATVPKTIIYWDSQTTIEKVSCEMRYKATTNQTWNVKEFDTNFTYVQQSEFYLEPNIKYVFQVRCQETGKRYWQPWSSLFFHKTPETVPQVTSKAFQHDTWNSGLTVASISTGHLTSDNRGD

T3: IL23R_huFC (human, UniProt Q5VWK5 24-353)
T3 sequence (looked up): T2 sequence (looked up)

B1: Ac-Cyclo-[[Abu]-QTWQC]-[2-Nal]-[2-Nal]-[α-MeOrn]-[Lys(Ac)]-NG-NH2 (peptide)
peptide: XQTWQCXXXKNG
modifications: as bracketed in name; thioether cyclo
B2: Ac-Cyclo-[[Abu]-QTWQC]-YWRENG-[AEA]-[(D)Lys]-NH2 (peptide)
peptide: Ac-[Abu]QTWQCYWRENG[AEA][dK]-NH2
modifications: thioether 1-6
B3: Ac-Cyclo-[[Abu]RTWQC]-YWRKFG-[AEA]-[(D)Lys]-NH2 (peptide)
peptide: Ac-[Abu(4-yl)]RTWQCYWRKFG[AEA][dK]-NH2
modifications: thioether 1-6
SMILES: CC(=O)N[C@H]1CCSC[C@@H](C(=O)N[C@@H](Cc2ccc(O)cc2)C(=O)N[C@@H](Cc2c[nH]c3ccccc23)C(=O)N[C@@H](CCCNC(=N)N)C(=O)N[C@@H](CCCCN)C(=O)N[C@@H](Cc2ccccc2)C(=O)NCC(=O)NCCOCC(=O)N[C@H](CCCCN)C(N)=O)NC(=O)[C@H](CCC(N)=O)NC(=O)[C@H](Cc2c[nH]c3ccccc23)NC(=O)[C@H]([C@@H](C)O)NC(=O)[C@H](CCCNC(=N)N)NC1=O
B4: Ac-Cyclo-[[Abu]-QTWQC]-[Phe(4-OMe)]-[Tyr(3-tBu)]-[α-MeLys]-ENG-NH2 (peptide)
peptide: Ac-[Abu]QTWQC[Phe(4-OMe)(3)][Tyr(3-tBu)][αMeK]ENG-NH2
modifications: thioether 1-6
B5: Ac-Cyclo-[[Abu]-QTWQC]-[Phe(4-OMe)]-[2-Nal]-[(D)Asn]-[Lys(Ac)]-NG-NH2 (peptide)
peptide: Ac-[Abu]QTWQC[Phe(4-OMe)][2Nal][dN]K(Ac)NG-NH2
modifications: thioether 1-6
B6: Ac-Cyclo-[[Abu]-QTWQC]-[Phe(4-OMe)]-[2-Nal]-[α-MeLys]-ENG-NH2 (peptide)
peptide: Ac-[Abu]QTWQC[Phe(4-OMe)][2Nal][αMeK]ENG-NH2
modifications: thioether 1-6
B7: Ac-Cyclo-[[Abu]-QTWQ-[Pen]]-[Phe(4-OMe)]-[2-Nal]-[α-MeLys]-ENG-NH2 (peptide)
peptide: XQTWQXFXKENG
modifications: as bracketed in name; thioether cyclo
B8: Ac-Cyclo-[[Abu]-QTWQ-[Pen]]-[Phe(4-OMe)]-[2-Nal][α-MeLys]-[Lys(Ac)]NG-NH2 (peptide)
peptide: XQTWQXFXKKNG
modifications: as bracketed in name; thioether cyclo
B9: Ac-Cyclo-[CRTWQ-[Abu]]-YWRKFG-[AEA]-[(D)Lys]-NH2 (peptide)
peptide: Ac-CRTWQ[Abu]YWRKFG[AEA][dK]-NH2
modifications: thioether 1-6
B10: Ac-[Pen]-NTWQ[Pen]-[Phe(CONH2)]-[2-Nal]-[Aib]-[Lys(Ac)]-NN-NH2 (peptide)
peptide: XNTWQXFXXKNN
modifications: as bracketed in name; Pen-Pen disulfide
B11: [Ac-[Pen]-NTWQ-[Pen]-[Phe(4-CONH2)]-[2-Nal]-[Aib]-KNN-NH2]2 DIG (peptide)
peptide: XNTWQXFXXKNN
modifications: as bracketed in name; Pen-Pen disulfide; DIG linker
B12: Ac-[Pen]-NTWQ-[Pen]-[Phe]4-(2-aminoethoxy)]-[2-Nal]-[Aib]-[Lys(Ac)]-N-[βAlal-NH2 (peptide)
peptide: XNTWQXFXXKNA
modifications: as bracketed in name; Pen-Pen disulfide
B13: Ac-[Pen]-NTWQ-[Pen]-[Phe]4-(2-aminoethoxy)]-[2-Nal]-[Aib]-[Lys(Ac)]-NN-NH2 (peptide)
peptide: XNTWQXFXXKNN
modifications: as bracketed in name; Pen-Pen disulfide
B14: Ac-[Pen]-QTWQ-[Pen]-[Phe[4-(2-aminoethoxy)]-[2-Nal]-[α-MeLeu]-[Lys(Ac)]-NN-NH2 (peptide)
peptide: XQTWQXFXLKNN
modifications: as bracketed in name; Pen-Pen disulfide
B15: Ac-ARTWQ-[MeCys]-YWRKFG-[AEA]-[(D)Lys]-NH2 (peptide)
peptide: Ac-ARTWQ[MeCys]YWRKFG[AEA][dK]-NH2
modifications: not fully specified; printed as Ac-ARTWQ-[MeCys]-YWRKFG-[AEA]-[(D)Lys]-NH2
B16: Ac-CKTWQCYWRVFG-[AEA]-[(D)Lys]-NH2 (peptide)
peptide: Ac-CKTWQCYWRVFG[AEA][dK]-NH2
modifications: cysteine pairing not given here
B17: Ac-C-[N-MeLys]-TWQCYWRVFG-[AEA]-[(D)Lys]-NH2 (peptide)
peptide: Ac-C[NMeK]TWQCYWRVFG[AEA][dK]-NH2
modifications: cysteine pairing not given here
B18: Ac-CQTWQCYW-[βhArg]-VNG-[AEA]-[(D)Lys]-NH2 (peptide)
peptide: Ac-CQTWQCYW[β3hR]VNG[AEA][dK]-NH2
modifications: disulfide 1-6
SMILES: CC(=O)N[C@H]1CSSC[C@@H](C(=O)N[C@@H](Cc2ccc(O)cc2)C(=O)N[C@@H](Cc2c[nH]c3ccccc23)C(=O)N[C@@H](CCCNC(=N)N)CC(=O)N[C@H](C(=O)N[C@@H](CC(N)=O)C(=O)NCC(=O)NCCOCC(=O)N[C@H](CCCCN)C(N)=O)C(C)C)NC(=O)[C@H](CCC(N)=O)NC(=O)[C@H](Cc2c[nH]c3ccccc23)NC(=O)[C@H]([C@@H](C)O)NC(=O)[C@H](CCC(N)=O)NC1=O

target: Rat IL-23R_huFC (rat); experiment: rat ELISA vs IL-23

Row | IC50 [nM] | Binder
1 | 100 to 1000 | B1
2 | 100 to 1000 | B2
3 | 100 to 1000 | B3
4 | 100 to 1000 | B4
5 | 100 to 1000 | B5
6 | 100 to 1000 | B6
7 | 100 to 1000 | B7
8 | 100 to 1000 | B8
9 | 100 to 1000 | B9

target: T1, IL-23R on human cells …; experiment: cell-based or functional assay

Row | NK cell assay IC50 (IFNγ) [nM] | Binder
10 | < 10 | B10
11 | < 10 | B11
12 | < 10 | B12
13 | < 10 | B13
14 | < 10 | B14

target: T1, IL-23R on human cells …; experiment: cell-based or functional assay; remark: another data set of the same source

Row | pStat3 HTRF IC50 [nM] | Binder
15 | < 10 | B6

target: T2, IL23R_huFC; experiment: human ELISA vs IL-23

Row | IC50 [nM] | Binder
16 | 25 to 100 | B3
17 | 25 to 100 | B4
18 | 25 to 100 | B5
19 | 25 to 100 | B6

target: T2, IL23R_huFC; experiment: human ELISA vs IL-23; remark: another data set of the same source

Row | IC50 [nM] | Binder
20 | 100 to 1000 | B2
21 | 100 to 1000 | B7

target: T3, IL23R_huFC; experiment: IL23-IL23R competitive ELISA

Row | IC50 [nM] | Binder
22 | 7570 | B15
23 | 40 | B16
24 | 80 | B17
25 | 922 | B18
